Assay results published in patent US20200140552A1 (Sanofi, published 2020).

Legend:
[1] = biological target: T1, cynomolgus monkey CD38 expressed on the surface of recombinant murine preB::300.19 cells (cynomolgus monkey, UniProt Q5VAN0 1-301); assay: flow cytometry on cCD38-expressing murine preB::300.19 cells
T1 construct: whole, on cells; also called cCD38-expressing cells; cells expressing cynomolgus CD38

[2] = biological target: T2, human CD38 expressed on the surface of recombinant murine preB::300.19 cells (human, UniProt P28907 1-300); assay: flow cytometry on hCD38-expressing murine preB::300.19 cells
T2 construct: whole, on cells; also called hCD38-expressing cells; cells expressing human CD38

[3] = biological target: T1, cynomolgus monkey CD38 expressed on the …; assay: flow cytometry on cCD38-expressing murine preB::300.19 cells, apparent KD (called EC50 in paragraph 336)
[4] = biological target: T2, human CD38 expressed on the surface of …; assay: flow cytometry on hCD38-expressing murine preB::300.19 cells, apparent KD (called EC50 in paragraph 336)
[5] = biological target: T3, human CD3 (SPR antigen of Example 2) (human); assay: SPR; KD rounded to integer; the cell gives two values for mid/low, the first taken as the CD3mid construct
T3 chain: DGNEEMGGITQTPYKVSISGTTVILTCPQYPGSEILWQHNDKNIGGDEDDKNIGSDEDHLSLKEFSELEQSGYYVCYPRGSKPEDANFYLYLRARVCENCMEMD

[6] = biological target: T4, recombinant human CD38 (SPR antigen of Example 2) (human, UniProt P28907 43-300); assay: as above
[7] = biological target: human CD28 (SPR antigen of Example 2) (human, UniProt P10747 19-152); assay: as above
[8] = biological target: T4, recombinant human CD38 (SPR antigen of …); assay: SPR against recombinant protein; the cell gives two values for mid/low, the first taken as the CD3mid construct
[9] = biological target: T4, recombinant human CD38 (SPR antigen of …); assay: SPR, target binding without other targets present
[10] = biological target: T4, recombinant human CD38 (SPR antigen of …); assay: SPR, target binding with the other two targets in saturation
[11] = biological target: T2, human CD38 expressed on the surface of …; assay: flow cytometry on hCD38-expressing murine preB::300.19 cells, apparent KD (called EC50 in paragraph 335)
[12] = biological target: T5, hCD38-his (SEQ ID NO: 2) (human, UniProt P28907 45-300); assay: SPR (summary table; Table K value rounded)
T5 construct: also called human CD38-histag (ID2); soluble extracellular domain of humanCD38

[13] = biological target: T6, cCD38-his (SEQ ID NO: 4) (cynomolgus monkey, UniProt Q5VAN0 46-301); assay: SPR (summary table; Table K value rounded)
T6 construct: also called cyno CD38-histag (ID3); soluble extracellular domain of cynomolgusCD38

[14] = biological target: T2, human CD38 expressed on the surface of …; assay: flow cytometry on CD38-expressing murine preB::300.19 cells, apparent KD

B1: CD38VH1xCD28cvnxCD3mid trispecific binding protein (other)
VH 1: QVQLQESGPGLVKPSQTLSLTCTVSGFSLSDYGVHWVRQPPGKGLEWLGVIWAGGGTNYNPSLKSRKTISKDTSKNQVSLKLSSVTAADTAVYYCARDKGYSYYYSMDYWGQGTTVTVS
VL 1: DIVLTQSPASLAVSPGQRATITCRASESVEYYVTSLMQWYQQKPGQPPKLLIFAASNVESGVPARFSGSGSGTDFTLTINPVEANDVANYYCQQSRKVPYTFGQGTKLEIK
VH 2: QVQLVESGGGVVQPGRSLRLSCAASGFTFTKAWMHWVRQAPGKQLEWVAQIKDKSNSYATYYADSVKGRFTISRDDSKNTLYLQMNSLRAEDTAVYYCRGVYYALSPFDYWGQGTLVTVSS
VL 2: DIVMTQTPLSLSVTPGQPASISCKSSQSLVHNNANTYLSWYLQKPGQSPQSLIYKVSNRFSGVPDRFSGSGSGTDFTLKISRVEAEDVGVYYCGQGTQYPFTFGSGTKVEIK
VH 3: QVQLVQSGAEVVKPGASVKVSCKASGYTFTSYAMHWVKEAPGQRLEWIGYIYPGQGGTNYNQKFQGRATLTADTSASTAYMELSSLRSEDTAVYFCARTGGLRRAYFTYWGQGTLVTVSS
VL 3: DIVLTQSPATLSLSPGERATISCRASQSVSSYGQGFMHWYQQKPGQPPRLLIYGASSRATGIPARFSGSGSGTDFTLTISPLEPEDFAVYYCQQNKEDPWTFGGGTKLEIK
fold lower apparent affinity than the parental antiCD38_C2-CD38-1_VH1-VL1 antibody [1]: 7.5 fold | fold lower apparent affinity than the parental antiCD38_C2-CD38-1_VH1-VL1 antibody [2]: 9 fold | Kd [3]: 7.5 nM | Kd [4]: 4.4 nM | Kd [5]: 23 nM | Kd [6]: 4 nM | Kd [7]: 18 nM | Kd [8]: 4 nM

B2: CD38SB19xCD28supxCD3mid trispecific binding protein (other)
VH 1: QVQLVQSGAEVVKPGASVKVSCKASGYTFTSYYIHWVRQAPGQGLEWIGSIYPGNVNTNYAQKFQGRATLTVDTSISTAYMELSRLRSDDTAVYYCTRSHYGLDWNFDVWGKGTTVTVSS
VL 1: DIQMTQSPSSLSASVGDRVTITCQASQNIYVWLNWYQQKPGKAPKLLIYKASNLHTGVPSRFSGSGSGTDFTLTISSLQPEDIATYYCQQGQTYPYTFGQGTKLEIK
VH 2: QVQLVESGGGVVQPGRSLRLSCAASGFTFTKAWMHWVRQAPGKQLEWVAQIKDKSNSYATYYADSVKGRFTISRDDSKNTLYLQMNSLRAEDTAVYYCRGVYYALSPFDYWGQGTLVTVSS
VL 2: DIVMTQTPLSLSVTPGQPASISCKSSQSLVHNNANTYLSWYLQKPGQSPQSLIYKVSNRFSGVPDRFSGSGSGTDFTLKISRVEAEDVGVYYCGQGTQYPFTFGSGTKVEIK
VH 3: QVQLVQSGAEVAKPGTSVKLSCKASGYTFTDYWMQWVKQRPGQGLEWIGTIYPGDGDTGYAQKFQGKATLTADKSSKTVYMHLSSLASEDSAVYYCARGDYYGSNSLDYWGQGTSVTVSS
VL 3: DIVMTQSHLSMSTSLGDPVSITCKASQDVSTVVAWYQQKPGQSPRRLIYSASYRYIGVPDRFTGSGAGTDFTFTISSVQAEDLAVYYCQQHYSPPYTFGGGTKLEIK
Kd [9]: 1.75 nM | Kd [10]: 2.42 nM | Kd [11]: 4 nM

B3: antiCD38_C2-CD38-1_VH6-VL3 (antibody, human IgG1, kappa, V domains shown)
VH: QVQLVQSGAEVVKPGASVKMSCKASGYTFTSFNMHWVKEAPGQRLEWIGYIYPGNGGTNYNQKFQGRATLTADTSASTAYMEISSLRSEDTAVYFCARTGGLRRAYFTYWGQGTLVTVSS
VL: DIVLTQSPATLSLSPGERATISCRASESVDSYGNGFMHWYQQKPGQPPRLLIYLASSRATGIPARFSGSGSGTDFTLTISPLEPEDFAVYYCQQNKEDPWTFGGGTKLEIKR
Kd [12]: 0.31 nM | Kd [13]: 0.56 nM

B4: antiCD38_C2-CD38-1_VH5-VL3 (antibody, human IgG1, kappa, V domains shown)
VH: QVQLVQSGAEVVKSGASVKVSCKASGYTFTSFNMHWVKEAPGQGLEWIGYIYPGNGGTNYNQKFQGRATLTADTSASTAYMEISSLRSEDTAVYFCARTGGLRRAYFTYWGQGTLVTVSS
VL: DIVLTQSPATLSLSPGERATISCRASESVDSYGNGFMHWYQQKPGQPPRLLIYLASSRATGIPARFSGSGSGTDFTLTISPLEPEDFAVYYCQQNKEDPWTFGGGTKLEIKR
Kd [12]: 0.82 nM | Kd [14]: 0.55 nM
